Patent publication US20180371095A1

Biological target: recombinant human VSIG4 (rhVSIG4), construct not stated (human) (UniProt Q9Y279)
Assay: ELISA, soluble rhVSIG4 coated, streptavidin-HRP detection, background corrected

absorbance at 452 nm: 2.3 absorbance
Substance: biotinylated rhSIGLEC-7 (from UniProt Q9Y286 19-357) (ligand)
